From article doi:10.1101/2025.01.09.632221 (bioRxiv, 2025) come the findings set out here.

Data set [1] has as its target sHcp-His6 (Bacteroides fragilis NCTC9343). As to the kind of experiment: SDS-PAGE.
For data set [2] the target is unchanged. Nature of the data set: SEC.
The target of the next data set is T1, Hcp2-His6 (Bacteroides fragilis NCTC9343, UniProt A0A380Z0E1 1-135).
T1 sequence (looked up): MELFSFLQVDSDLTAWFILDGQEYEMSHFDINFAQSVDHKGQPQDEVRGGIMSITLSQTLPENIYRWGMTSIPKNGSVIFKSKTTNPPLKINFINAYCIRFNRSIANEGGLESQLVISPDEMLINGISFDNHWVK
Nature of the data set: pull-down.

The data set “crystal structure” concerns the molecule itself. Nature of the data set: crystal structure.

As to sHcp-His6 (natural protein), the stoichiometry N in data set [1] was 3; in data set [2], 6.

B1: Hcp1, untagged, co-expressed in E. coli BL21(DE3) (natural protein, Bacteroides fragilis NCTC9343, UniProt Q5LDT5 1-142, looked up)
chain: MFGHKSFLRIGALGDSSISGLYKDSYELENCHFSFNQGTNTDGKPQTDVRGGTLYLTYAGLPQDDMLRWILNSKKYEDGAIVICDDSDEPLEKILFEQAACTGLNIEYTQKGKAYIHTKIILQVRKIKVGETTFENRWTINE
In the case of B1, the “stoichiometry N” value in the data set with Hcp2-His6 was 2 Hcp1 per Hcp2 (printed as the ratio 4:2).

B2: C-terminal 6His-tagged Se-Met sHcp protein (natural protein, Bacteroides fragilis NCTC9343)
chain: MAFRATLSFAGKEFDVLDCTYSLKRDVDSKGRPSSNIYGGQIRLHVESTDDTSILENMTNQFKPHSGSIVFKKGDEEAKMKELTWENGYITEFTENIDIVGSQPMTITFVVSAQVIKIGGAQFEQNWPK
modifications: selenomethionine in place of methionine
Regarding B2, the “stoichiometry N” value in the data set “crystal structure” was 6.
